Results reported in patent US20160304613A1 (Genentech, published 2016).

Tests used:
[1] = target: T1, human NRP1 (human, UniProt O14786 22-641); assay: SPR (BIAcore-3000), IgG immobilized, NRP1 injected, 25 C
T1 construct: range 1-641; Recombinant soluble protein; also called hNRP1; human neuropilin-1
Protocol: (§1) Association rates (kₒₙ) and dissociation rates (koff) were calculated using a simple one-to-one Langmuir binding model (BIAcore Evaluation Software version 3.2). The equilibrium dissociation constant (Kd) was calculated as the ratio koff/kₒₙ.
(§2) (See Materials and Methods).

[2] = target: T2, murine NRP1 (murine, UniProt P97333 22-641); assay: as above
T2 construct: range 1-641; Recombinant soluble protein; also called mNRP1; murine neuropilin-1
Protocol: as §1, §2

[3] = target: T3, BSA (UniProt P02769 25-607); assay: ELISA, antigen-coated wells (2 µg/ml), IgG at 10 µg/ml, detected with anti-human IgG HRP, OD450nm
T3 construct: Specificity control antigen

[4] = target: T4, human NRP2 (human, UniProt O60462 23-864, limits assumed); assay: as above
T4 construct: Coated on wells in ELISA and injected in SPR; construct not described; also called hNRP2

[5] = target: T5, ErbB2-ECD (UniProt P04626 23-652, limits assumed); assay: as above
T5 construct: extracellular domain; Specificity control antigen

[6] = target: T6, murine NRP2 (murine, UniProt O35375 23-864, limits assumed); assay: as above
T6 construct: Coated on wells in ELISA and injected in SPR; construct not described; In the Sema3F collapse assay it is the endogenous NRP2 of mouse E17 hippocampal neurons; also called mNRP2

[7] = target: T1, human NRP1; assay: competitive phage ELISA, phage-displayed Fab'2, antigen in solution vs immobilized antigen
[8] = target: T2, murine NRP1; assay: as above
[9] = target: T1, human NRP1; assay: competitive phage ELISA
[10] = target: T2, murine NRP1; assay: competitive phage ELISA
[11] = target: T4, human NRP2; assay: BIAcore SPR, IgG immobilized on the chip, antigen injected at 500 nM (printed '500nm')
Protocol: as §1

[12] = target: T6, murine NRP2; assay: as above
Protocol: as §1

T2 sequence (P97333 22-641 limits assumed, form in doubt): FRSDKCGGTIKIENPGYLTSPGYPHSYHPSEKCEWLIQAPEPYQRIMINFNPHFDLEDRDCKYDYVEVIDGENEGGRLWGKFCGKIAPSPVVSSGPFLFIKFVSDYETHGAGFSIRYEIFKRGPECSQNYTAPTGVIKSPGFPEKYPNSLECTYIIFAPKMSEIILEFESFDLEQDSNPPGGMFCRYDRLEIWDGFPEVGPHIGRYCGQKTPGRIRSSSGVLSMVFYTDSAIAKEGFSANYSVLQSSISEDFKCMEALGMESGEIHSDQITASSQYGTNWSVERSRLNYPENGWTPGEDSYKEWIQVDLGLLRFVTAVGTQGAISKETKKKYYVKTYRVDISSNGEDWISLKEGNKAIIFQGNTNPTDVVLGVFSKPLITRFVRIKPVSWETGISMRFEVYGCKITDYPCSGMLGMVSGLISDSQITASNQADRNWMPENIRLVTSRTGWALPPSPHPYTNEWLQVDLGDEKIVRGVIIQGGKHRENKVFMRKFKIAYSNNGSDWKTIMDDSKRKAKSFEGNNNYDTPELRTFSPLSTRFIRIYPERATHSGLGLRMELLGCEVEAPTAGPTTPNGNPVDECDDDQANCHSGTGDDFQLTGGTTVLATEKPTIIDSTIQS
T4 sequence (O60462 23-864 limits assumed): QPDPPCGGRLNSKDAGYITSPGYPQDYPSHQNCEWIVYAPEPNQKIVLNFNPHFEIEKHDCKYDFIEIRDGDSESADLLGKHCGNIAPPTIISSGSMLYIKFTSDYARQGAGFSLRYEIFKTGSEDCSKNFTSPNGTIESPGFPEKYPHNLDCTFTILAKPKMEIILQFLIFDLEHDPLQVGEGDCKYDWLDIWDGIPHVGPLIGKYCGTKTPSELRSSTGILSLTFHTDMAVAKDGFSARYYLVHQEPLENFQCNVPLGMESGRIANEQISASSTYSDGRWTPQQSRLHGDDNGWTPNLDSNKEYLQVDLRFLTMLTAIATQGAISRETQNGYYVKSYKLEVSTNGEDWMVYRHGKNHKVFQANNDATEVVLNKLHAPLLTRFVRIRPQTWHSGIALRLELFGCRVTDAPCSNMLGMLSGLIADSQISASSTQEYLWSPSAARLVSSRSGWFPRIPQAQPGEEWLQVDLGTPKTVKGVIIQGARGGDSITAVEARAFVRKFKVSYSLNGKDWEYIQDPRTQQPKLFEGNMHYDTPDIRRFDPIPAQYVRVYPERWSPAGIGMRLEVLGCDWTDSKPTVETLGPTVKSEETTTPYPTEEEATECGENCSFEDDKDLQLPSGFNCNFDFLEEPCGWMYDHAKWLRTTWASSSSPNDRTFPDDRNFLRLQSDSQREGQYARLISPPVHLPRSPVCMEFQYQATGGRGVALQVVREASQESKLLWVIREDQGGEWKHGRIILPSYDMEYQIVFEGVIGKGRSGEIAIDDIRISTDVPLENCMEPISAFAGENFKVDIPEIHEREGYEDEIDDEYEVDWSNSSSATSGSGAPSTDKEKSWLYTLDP
T6 sequence (O35375 23-864 limits assumed): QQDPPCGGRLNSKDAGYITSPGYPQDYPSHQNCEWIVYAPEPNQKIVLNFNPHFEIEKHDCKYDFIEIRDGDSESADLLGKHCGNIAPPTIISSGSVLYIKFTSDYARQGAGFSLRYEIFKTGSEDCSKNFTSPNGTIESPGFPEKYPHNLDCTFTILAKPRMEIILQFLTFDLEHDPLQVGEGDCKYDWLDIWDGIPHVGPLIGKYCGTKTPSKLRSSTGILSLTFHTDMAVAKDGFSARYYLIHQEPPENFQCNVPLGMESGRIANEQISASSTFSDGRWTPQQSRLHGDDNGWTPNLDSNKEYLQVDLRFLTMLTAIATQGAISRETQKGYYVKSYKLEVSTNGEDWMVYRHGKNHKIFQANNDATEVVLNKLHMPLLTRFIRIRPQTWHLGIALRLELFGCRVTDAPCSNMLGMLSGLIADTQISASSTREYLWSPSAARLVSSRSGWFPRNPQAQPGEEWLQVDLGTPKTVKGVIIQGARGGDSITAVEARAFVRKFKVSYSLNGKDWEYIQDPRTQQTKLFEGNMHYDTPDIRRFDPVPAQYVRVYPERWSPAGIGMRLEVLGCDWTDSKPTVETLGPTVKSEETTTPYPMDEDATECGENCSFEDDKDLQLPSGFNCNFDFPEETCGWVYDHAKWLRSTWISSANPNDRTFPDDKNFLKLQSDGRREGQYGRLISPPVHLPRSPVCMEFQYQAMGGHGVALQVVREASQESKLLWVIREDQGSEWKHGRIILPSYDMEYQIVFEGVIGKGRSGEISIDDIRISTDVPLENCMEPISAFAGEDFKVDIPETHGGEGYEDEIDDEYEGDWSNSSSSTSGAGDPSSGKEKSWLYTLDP
T3 sequence (P02769 25-607 limits assumed): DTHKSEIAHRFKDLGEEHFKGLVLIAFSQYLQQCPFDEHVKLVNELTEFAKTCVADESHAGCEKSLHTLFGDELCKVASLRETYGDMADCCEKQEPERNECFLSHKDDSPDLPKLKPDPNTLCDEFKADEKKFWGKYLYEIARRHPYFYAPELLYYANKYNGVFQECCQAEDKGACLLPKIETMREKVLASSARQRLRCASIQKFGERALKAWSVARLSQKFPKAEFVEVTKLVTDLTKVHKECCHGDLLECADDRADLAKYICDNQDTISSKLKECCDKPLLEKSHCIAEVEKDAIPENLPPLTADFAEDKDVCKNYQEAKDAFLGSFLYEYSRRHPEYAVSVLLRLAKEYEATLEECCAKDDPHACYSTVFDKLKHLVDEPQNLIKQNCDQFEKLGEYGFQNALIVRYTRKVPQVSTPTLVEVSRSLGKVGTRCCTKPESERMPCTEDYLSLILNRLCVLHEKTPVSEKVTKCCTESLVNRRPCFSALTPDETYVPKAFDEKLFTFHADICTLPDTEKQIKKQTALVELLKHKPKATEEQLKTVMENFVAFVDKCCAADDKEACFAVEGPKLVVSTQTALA

Molecule	koff [1]	kon [1]	koff [2]	kon [2]	Kd [1]	Kd [2]	binding result [3]	binding result [4]	binding result [5]	binding result [6]	IC50 [7]	IC50 [8]	IC50 [9]	IC50 [10]	binding result [11]	binding result [12]
YW107.4 (antibody)	0.0011 s⁻¹	220000 M⁻¹ s⁻¹	0.0015 s⁻¹	140000 M⁻¹ s⁻¹												
YW64.3 (antibody, human IgG1, V domains shown, full length human IgG1 (CHO) in ELISA, SPR and FACS; also called anti-NRP1^A; anti-NRP^A) VH: EVQLVESGGGLVQPGGSLRLSCAASGFSFSSEPISWVRQAPGKGLEWVSSITGKNGYTYYADSVKGRFTISADTSKNTAYLQMNSLRAEDTAVYYCARWGKKVYGMDVWGQGTLVTVSS VL: DIQMTQSPSSLSASVGDRVTITCRASQSISSYLAWYQQKPGKAPKLLIYGASSRASGVPSRFSGSGSGTDFTLTISSLQPEDFATYYCQQYMSVPITFGQGTKVEIKR	0.00012 s⁻¹	130000 M⁻¹ s⁻¹	0.00045 s⁻¹	60000 M⁻¹ s⁻¹	0.9 nM	7.8 nM	no binding (tested: 10 µg/ml)	no binding (tested: 10 µg/ml)	no binding (tested: 10 µg/ml)	no binding (tested: 10 µg/ml)	0.48 nM	3.4 nM	< 70 nM	< 70 nM		
YW107.4.87 (antibody, V domains shown, Monovalent Fab on phage in the phage ELISA; also called anti-NRP1^B; anti-NRP^B) VH: EVQLVESGGGLVQPGGSLRLSCAASGFTFSSYAMSWVRQAPGKGLEWVSQISPAGGYTNYADSVKGRFTISADTSKNTAYLQMNSLRAEDTAVYYCARELPYYRMSKVMDVWGQGTLVTVSS VL: DIQMTQSPSSLSASVGDRVTITCRASQYFSSYLAWYQQKPGKAPKLLIYGASSRASGVPSRFSGSGSGTDFTLTISSLQPEDFATYYCQQYLGSPPTFGQGTKVEIKR															no binding (tested: 500 nM)	no binding (tested: 500 nM)
